From the nanobody polyreactivity screen of Harvey et al. (2022)

Test: yeast display, Sf9 membrane polyspecificity reagent, FACS + sequencing; frameworks hold sequencing errors
In short: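 Nanobodies came from a synthetic yeast display library in Saccharomyces cerevisiae BJ5465, induced with galactose for 36–48 hours and stained for 1 hour at 4 °C with 10% biotinylated, detergent-solubilized Sf9 membrane reagent. Cells were enriched on streptavidin microbeads and then FACS-sorted, with low and high (top ~1%) gates set on anti-HA fluorescence for expression and streptavidin fluorescence for reagent binding. Each polyreactivity label reflects the gate a clone came from. Genes were amplified by colony PCR, sequenced by MiSeq 2 × 250 and filtered by CDR length.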
With “QVQLVESGGGLVQAGGRLRLSCAASGRTFGWYAMGWYRQAPGKERELVASITQRGGRTYYADSVKGRFTISRDNAKNTVYLQMNSLKPEDTAVYYCAAKTSPGMYYWGQGTQVTVSS” the “polyreactivity (PSR sort gate)” value was “high polyreactivity”. With “QVQLVESGGGLVQAGGSLRLSCAASGSIFLINAMGWYRQAPGKERELVAAISWSGGSTSYADSVKGRFTISRDNAKNTVYFQMNSLKPEDTAVFYCAAESISYRPGYDYWRQGTQVTVSS” the “polyreactivity (PSR sort gate)” value was “low polyreactivity”. With “QVQLVESGGGLVQAGGSLRLSCAASGRIFRGYAMGWYRQAPGKERELVAAISRRGGSTSYADSVKGRFTISRDNAKNTVYLQMNSLKPEDTAVYYCAVDYSKNGDDYWGQGTQVTVSS” the “polyreactivity (PSR sort gate)” value was “high polyreactivity”. For “QVQLVESGGGLVQAGGSLRLICAASGSIFDPYAMGWYRQAPGKERELVAAITYSAARTYYADSVKGRFTISRDNAKNTVYLQMNSLKPEDTAVYYFNRVVRREAERYDYWGQGTQVTVSS”, the “polyreactivity (PSR sort gate)” value was “high polyreactivity”. In the case of “QVQLQESGGGLVQAGGSLRLSCAASGNIFEADIMGWYHQAQGKERELVASITDGGSTNYADSVKGRFTINRDNAKNNVYLQMNSLKPADTAVYYCAAIAYPDIPTYFDYDSDYFYWGQGTQVTVSS”, the “polyreactivity (PSR sort gate)” value is reported as “high polyreactivity”. With “QVQIVESGGGLVQAGGSLRLSCAASGSIFLRNAMGWYRQAPGKERELVASITWNGASTSYADSVKGRFTISRDNAKNTVYLQMNSLKPEDTAVYYCAAVTVQDSNLNYGYWGQGTQVTVSS” the “polyreactivity (PSR sort gate)” value was “low polyreactivity”. With “QVQLVESGGGLVQPGGSLRLLFAASGSNFVYNEMGWYRQAPGKERELVAGIDWSGDRTYADSVKRRFTNSRDNAKNTVYLQMNSLKQEDTAVKYCNADEWLWDEIIPFAVDYWGQGTQVTVSS” the “polyreactivity (PSR sort gate)” value was “low polyreactivity”. For “QVQLVESGGGLVQAGGSLRLSCAASGSIFYYYAMGWYRQAPGKERELVASISTDGSTYADSVKGRFTISRDNAKNTVYLQMNSLKPEDTAVYYCNADTRGEYTYVSWYDYWGQGTQVTVSS”, the “polyreactivity (PSR sort gate)” value was “low polyreactivity”. With “QVQLVESGGGLVQAGGSLRLSCAASGLTFDSYTMGWYRQAPGKERELVAAITNSGGSTYYADSVKGRFTISRDNAKNTVYLQMNSLKPEDTAVYYCAAFRTSRLYGGSYGYWGQGTQVTVSS” the “polyreactivity (PSR sort gate)” value was “high polyreactivity”. For “QVQLVESGGGLVQAGGSLRLSCASSGSIFLINAMGWYRQAPGKERELVAAISRSGGRTYYADSVKGRFTISRDNAKNTVYLQMNSLKPEDTAVYYCAVPSIYYAGRAYDYWGQGTQVTVSS”, the “polyreactivity (PSR sort gate)” value was “high polyreactivity”. For “QVQLVESGGGLVQAGGSLRLSCAASGGIFYPYAMGGYRQAPGKERELVASIDVSDGSTYYADSVKGRFTISRDNAKNTVYLQMNSLKPEDTAVYYCAADRYYKAIDFEGDYWGQGTQVTVSS”, the “polyreactivity (PSR sort gate)” value was “low polyreactivity”. For “QVQHVESGAGLVQAGGSLRLSCAASGIILLENAIGCYRQQPGKERELVSGISSGGNTNYADSVKGRFTISRDNAKNTVYLQINSLKPEDTAVYYCNTDWYLPRYVLPGYFSGTEDYWGKGTQVTVSS”, the “polyreactivity (PSR sort gate)” value was “low polyreactivity”. For “QVQLVESGGGLVQAGGRLRLSCASSGITFWTYAMGWYRQAPGKERELVAAISKSGGSTYYADSVKGRYTISRDNAKNNVYFELNSLKPEDTAVYYCAAKGLRYRDIDYDYWGQGTQVTVSS”, the “polyreactivity (PSR sort gate)” value was “low polyreactivity”. In the case of “QVQLVESGGGLVQAGGSLRLSCAASGFIFIRNAMGWYRQAPGKERELVAAISSGCRTYYADSVKGRFTISRDNAKNTVYLQMNSLKPEDTAVYYCATRPHRPRGHSVGQYDYWGQGTQVTVSS”, the “polyreactivity (PSR sort gate)” value is reported as “high polyreactivity”. In the case of “QVHLVESGGGLVQAGGSLRLSCAASGGIFYINSMGWYRQAPGKERELVAAITGGASTYYADSVKGRFTISRDNAKNTVYLQMNSLNPEDTAVYYCAARPSSRRVYPAYLYGYWGQGTQVSVSS”, the “polyreactivity (PSR sort gate)” value is reported as “high polyreactivity”. For “QVQLVESGGGLVQAGGSLRLSCAASGRIFDKNAMGWYRQAPGKERELVAAISGGGRTYYADSVKGRFTISRDNAKNTVYLLMNSLKPEDTAVYYCNVPYYYTRGSYGYWGQGTQVTVSS”, the “polyreactivity (PSR sort gate)” value was “low polyreactivity”. In the case of “QVQLVESGGGLVQAGGSLRLICAASGISFDGNPMGWYRQAPGKERELVASITSDSSTNYADSVKGRFTISRDNAKNTVYLQMKSLKPEDTAVYYCAADHWIAPRRDYWGQGTQVTVSS”, the “polyreactivity (PSR sort gate)” value is reported as “low polyreactivity”. In the case of “QVQLVESGGGLVQAGGSLRLRGAASGRTFPGYAMGWCRPAPGNERELVATICSADSTNYADSVMGRFTSSRDNAKNTVKLHMKSLKPEDTAVYFCAQRYGRNGAAAQYNVWYRYDYWGQGTQVTVSS”, the “polyreactivity (PSR sort gate)” value is reported as “low polyreactivity”. For “QVQLVESGGGLVLAGASLRLSCAPSGFIFVRYAMGWYRAAPGKERELVAAISSGGSTKYADSVKGRFTISRDNAKNTVYLQMNSLKPEDTAVYYCAADATPGRGVDYWGQGTQVTVSS”, the “polyreactivity (PSR sort gate)” value was “high polyreactivity”. For “QVQLVESGGGLVQAGGSLRLSCAASGSTFGVNAMGWYRQAPGKERELVATISRGTSTNYADSVKGRFTISRDNAKNTVYLQMHSLKPEDTAVYYCAKRVFYPGAYRYYYWGQGTQVTVSS”, the “polyreactivity (PSR sort gate)” value was “high polyreactivity”. For “QVQLVESGGGLVHAGGSLRLSCASSGSALFWNAMGWYRQAPGKERELVATITNSGGSTYYADSVKGRFTISRDNAKNTVYLQMNSLKPEDTAVYYCNADESAYWKLRHGLGSDSWGQGTQVTVSS”, the “polyreactivity (PSR sort gate)” value was “low polyreactivity”.
